The target of the experiment is NLRP3 inflammasome (Homo sapiens, UniProt Q96P20). Nature of the experiment: In vitro assay of NLRP3 assembly (hybridoma clones). The note with it: compared among the hybridoma clones.
NLRP3 inflammasome, sequence (Q96P20 whole entry): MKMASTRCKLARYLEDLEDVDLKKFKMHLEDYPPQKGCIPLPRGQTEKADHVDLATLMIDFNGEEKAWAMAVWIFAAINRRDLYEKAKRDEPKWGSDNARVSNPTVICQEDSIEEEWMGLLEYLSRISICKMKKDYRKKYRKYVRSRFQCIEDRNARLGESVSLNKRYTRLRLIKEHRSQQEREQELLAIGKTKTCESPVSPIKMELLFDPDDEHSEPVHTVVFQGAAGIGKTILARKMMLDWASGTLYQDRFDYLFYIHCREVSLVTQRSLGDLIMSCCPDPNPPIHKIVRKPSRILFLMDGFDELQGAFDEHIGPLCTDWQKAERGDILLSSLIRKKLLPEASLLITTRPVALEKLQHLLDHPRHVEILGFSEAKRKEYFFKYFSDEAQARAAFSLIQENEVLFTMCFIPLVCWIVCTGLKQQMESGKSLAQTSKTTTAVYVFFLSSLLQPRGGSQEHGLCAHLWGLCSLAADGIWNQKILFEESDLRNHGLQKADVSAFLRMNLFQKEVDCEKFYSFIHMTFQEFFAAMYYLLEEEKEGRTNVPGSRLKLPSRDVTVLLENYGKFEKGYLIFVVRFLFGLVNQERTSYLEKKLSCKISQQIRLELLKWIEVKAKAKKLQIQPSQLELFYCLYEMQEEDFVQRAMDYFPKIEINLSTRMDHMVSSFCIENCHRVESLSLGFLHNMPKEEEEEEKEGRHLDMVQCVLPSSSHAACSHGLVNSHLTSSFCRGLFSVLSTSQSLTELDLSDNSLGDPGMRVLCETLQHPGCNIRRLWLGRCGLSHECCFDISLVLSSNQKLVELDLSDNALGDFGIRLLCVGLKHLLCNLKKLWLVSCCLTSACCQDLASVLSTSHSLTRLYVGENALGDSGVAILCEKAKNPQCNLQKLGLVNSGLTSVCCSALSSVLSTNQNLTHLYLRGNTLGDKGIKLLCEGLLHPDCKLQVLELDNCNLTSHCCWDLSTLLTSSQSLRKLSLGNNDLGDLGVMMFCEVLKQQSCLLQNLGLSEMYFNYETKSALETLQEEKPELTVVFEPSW

B1: F226 7A7-1E1-2D5: anti-NLRP3 monoclonal antibody from hybridoma clone, sequenced and used in the bispecific; VH SEQ ID NO: 36, VL SEQ ID NO: 43 (antibody)
VH: MDFGLSWVFLVLVLKGVQCEVQLVESGGGLVKPGGSLKLSCAASGFTFSDYYMYWVRQTPEKRLEWVATISDGGTYTYYPDSVKGRFTISRDNAKNNLYLQMNSLKSEDTAMYYCARGWVSTMVKLLSSFPYWGQGTLVTVSAAKTTPPSVYPLA
VL: MAWISLLFSLLALSSGAISQAVVTQESALTTSPGETVTLTCRSSTGAVTTSNYANWVQEKPDHLFTGLIGGTNNRAPGVPARFSGSLIGDKAALTITGAQTEDEAIYFCALWYSNYWVFGGGTKLTVLGQPKSSPSVTLFPPSTEKLSL
Regarding B1, the “preventing NLRP3 assembly” value is recorded as “most active”.

These data come from patent US12264201B2, “Bispecific antibody targeting IL-1R1 and NLPR3” (University of Ulster, priority 2018, dated 2025).
